± gives the uncertainty stated by the source.

A short description of the series: self-splicing fitness, log relative to wild type (ln ratio); higher = more splicing; Tetrahymena group I intron in knt gene, E. coli kanamycin selection, DiMSum; sequences stand for … in CUCUCU…GGAGGGAAAAGUUAUCAGGCAUGCACCUGGUAGCUAGUCUUUAAACCAAUAGAUUGCAUCGGUUUAAAAGGCAAGACCGUCAAAUUGCGGGAAAGGGGUCAACAGCCGUUCAGUACCAAGUCUCAGGGGAAACUUUGAGAUGGCCUUGCAAAGGGUAUGGUAAUAAGCUGACGGACAUGGUCCUAACCACGCAGCCAAGUCCUAAGUCAACAGAUCUUCUGUUGAUAUGGAUGCAGUUCACAGACUAAAUGUCGGUCGGGGAAGAUGUAUUCUUCUCAUAAGAUAUAGUCGGACCUCUCCUUAAUGGGAGCUAGCGGAUGAAGUGAUGCAACACUGGAGCCGCUGGGAACUAAUUUGUAUGCGAAAGUAUAUUGAUUAGUUUUGGAGUACUCGUGGUCG
Put shortly:
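Colonies from six replicate transformations of E. coli BL21(DE3) were pooled and amplicon-sequenced on an Illumina HiSeq 2500. The library placed an intron with all eight P1ex-region nucleotides randomised inside the knt kanamycin-resistance gene on pET-22b(+), and cells grew overnight at 37°C or 30°C on LB agar with or without 25 μg/mL kanamycin (plus 100 μg/mL carbenicillin, 50 μM IPTG, 0.2% rhamnose). Fitness is the DiMSum error-weighted combination of wild-type-normalised replicate fold changes, kanamycin versus none.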

Take CGUGAGCAAUAUUACGAACA: the “self-splicing fitness (ln)” value by setting is: (30 °C) -0.649 ± 0.15; (37 °C) -0.766 ± 0.17.

Regarding CGUGAGCAAUAUUACGACCA, under “37 °C”, the “self-splicing fitness (ln)” value was -0.768 ± 0.24. For CGUGAGCAAUAUUACGACCG, the “self-splicing fitness (ln)” value was -3.79 ± 0.33 (30 °C) and -1.39 ± 0.27 (37 °C). For the sequence CGUGAGCAAUAUUACGACGA, the “self-splicing fitness (ln)” value is -1.92 ± 0.12 (30 °C) and -0.885 ± 0.12 (37 °C).

In the case of CGUGAGCAAUAUUACGACGG, the “self-splicing fitness (ln)” value was -0.058 ± 0.098 (30 °C) and 0.525 ± 0.11 (37 °C). In the case of CGUGAGCAAUAUUACGAGAA, the “self-splicing fitness (ln)” value (30 °C) was -3.1 ± 0.34 and the “self-splicing fitness (ln)” value (37 °C) was -2.08 ± 0.24.

As for CGUGAGCAAUAUUACGAUAG, the “self-splicing fitness (ln)” value is, setting by setting: (30 °C) -1.13 ± 0.1; (37 °C) -0.217 ± 0.15.

As for CGUGAGCAAUAUUACGAUCC, the “self-splicing fitness (ln)” value is -2.65 ± 0.25 (30 °C) and -0.358 ± 0.25 (37 °C).

For the sequence CGUGAGCAAUAUUACGAUCU, the “self-splicing fitness (ln)” value is -0.613 ± 0.088 (30 °C) and -0.995 ± 0.14 (37 °C).

For the sequence CGUGAGCAAUAUUACGAUGU, the “self-splicing fitness (ln)” value by setting is: (30 °C) -1.56 ± 0.16; (37 °C) -2.29 ± 0.25. For CGUGAGCAAUAUUACGCAAG the same measures were -2.85 ± 0.15 and -0.853 ± 0.13. Turning to CGUGAGCAAUAUUACGCACA, the “self-splicing fitness (ln)” value by setting is: (30 °C) -1.32 ± 0.16; (37 °C) -0.702 ± 0.18. As for CGUGAGCAAUAUUACGCCAC, under “30 °C”, the “self-splicing fitness (ln)” value was -1.74 ± 0.35.

With CGUGAGCAAUAUUACGCCCA, for the setting “37 °C”, the “self-splicing fitness (ln)” value is -2.03 ± 0.46.

Regarding CGUGAGCAAUAUUACGCGAA, the “self-splicing fitness (ln)” value was -2.35 ± 0.14 (30 °C) and -3.33 ± 0.29 (37 °C). For the sequence CGUGAGCAAUAUUACGCGAU, the “self-splicing fitness (ln)” value (30 °C) was -2.75 ± 0.23 and the “self-splicing fitness (ln)” value (37 °C) was -1.35 ± 0.24.

Consider CGUGAGCAAUAUUACGCUCG, for which the “self-splicing fitness (ln)” value is -2.69 ± 0.26 (30 °C) and -2.64 ± 0.24 (37 °C). As to CGUGAGCAAUAUUACGCUGG, the “self-splicing fitness (ln)” value by setting is: (30 °C) -1.7 ± 0.15; (37 °C) -1.47 ± 0.18. For the sequence CGUGAGCAAUAUUACGGAUU, the “self-splicing fitness (ln)” value is, setting by setting: (30 °C) -4.38 ± 0.36; (37 °C) -3.78 ± 0.46.

As for CGUGAGCAAUAUUACGGCGG, the “self-splicing fitness (ln)” value reads like this: (30 °C) 0.333 ± 0.089; (37 °C) 0.466 ± 0.11.

For the sequence CGUGAGCAAUAUUACGGGGG, the “self-splicing fitness (ln)” value by setting is: (30 °C) -2.65 ± 0.29; (37 °C) -3.28 ± 0.37. Regarding CGUGAGCAAUAUUACGGGUA, the “self-splicing fitness (ln)” value (37 °C) is -2.39 ± 0.38. Turning to CGUGAGCAAUAUUACGUAAG, the “self-splicing fitness (ln)” value (30 °C) is -0.896 ± 0.1 and the “self-splicing fitness (ln)” value (37 °C) was -1.14 ± 0.15. Consider CGUGAGCAAUAUUACGUCGA, for which the “self-splicing fitness (ln)” value is, setting by setting: (30 °C) -1.75 ± 0.29; (37 °C) -3.3 ± 0.3. On the same counts, the results for CGUUAGCAAUAUUACGAAAG are -1.11 ± 0.13 and -0.689 ± 0.18. Consider CGUUAGCAAUAUUACGAAGC, for which the “self-splicing fitness (ln)” value (30 °C) was -2.28 ± 0.43. Turning to CGUUAGCAAUAUUACGAAGG, the “self-splicing fitness (ln)” value is, setting by setting: (30 °C) -1.69 ± 0.1; (37 °C) -0.895 ± 0.11. Turning to CGUUAGCAAUAUUACGACGU, the “self-splicing fitness (ln)” value runs as follows: (30 °C) -2.74 ± 0.14; (37 °C) -2.05 ± 0.16. For CGUUAGCAAUAUUACGAGAG, the “self-splicing fitness (ln)” value (30 °C) is -2.83 ± 0.25 and the “self-splicing fitness (ln)” value (37 °C) is 0.0196 ± 0.17. CGUUAGCAAUAUUACGAGAU: the “self-splicing fitness (ln)” value reads like this: (30 °C) -2.01 ± 0.23; (37 °C) -2.33 ± 0.35. For the sequence CGUUAGCAAUAUUACGAGUA, the “self-splicing fitness (ln)” value reads like this: (30 °C) -3.68 ± 0.37; (37 °C) -2.67 ± 0.36.

Consider CGUUAGCAAUAUUACGAUAU, for which the “self-splicing fitness (ln)” value by setting is: (30 °C) -3.41 ± 0.14; (37 °C) -2.22 ± 0.14. For CGUUAGCAAUAUUACGAUGU the same measures were -2.6 ± 0.26 and -1.78 ± 0.36. Turning to CGUUAGCAAUAUUACGCAAA, the “self-splicing fitness (ln)” value (30 °C) was -2.53 ± 0.36 and the “self-splicing fitness (ln)” value (37 °C) was -2.67 ± 0.48. On to CGUUAGCAAUAUUACGCAAU, for which the “self-splicing fitness (ln)” value (37 °C) was -1.02 ± 0.23. For the sequence CGUUAGCAAUAUUACGCAUG, the “self-splicing fitness (ln)” value was -1.13 ± 0.12 (30 °C) and -0.626 ± 0.17 (37 °C). Take CGUUAGCAAUAUUACGCUCA: the “self-splicing fitness (ln)” value was -0.383 ± 0.14 (30 °C) and -0.384 ± 0.15 (37 °C).

For CGUUAGCAAUAUUACGCUGU, the “self-splicing fitness (ln)” value runs as follows: (30 °C) -2.88 ± 0.22; (37 °C) -2.71 ± 0.33. On to CGUUAGCAAUAUUACGCUUG, for which the “self-splicing fitness (ln)” value runs as follows: (30 °C) -1.71 ± 0.12; (37 °C) -1.26 ± 0.15. On the same counts, the results for CGUUAGCAAUAUUACGGAAC are -3.05 ± 0.48 and -2.4 ± 0.41. For CGUUAGCAAUAUUACGGAUA, the “self-splicing fitness (ln)” value reads like this: (30 °C) -1.83 ± 0.37; (37 °C) -2.08 ± 0.31. Regarding CGUUAGCAAUAUUACGGAUU, the “self-splicing fitness (ln)” value was -2.33 ± 0.23 (30 °C) and -2.21 ± 0.24 (37 °C).

Turning to CGUUAGCAAUAUUACGGCGC, the “self-splicing fitness (ln)” value (37 °C) was -2.24 ± 0.32. CGUUAGCAAUAUUACGGGCU: the “self-splicing fitness (ln)” value (30 °C) was -1.6 ± 0.099 and the “self-splicing fitness (ln)” value (37 °C) was -1.46 ± 0.16. For CGUUAGCAAUAUUACGGGGG, the “self-splicing fitness (ln)” value was -4.81 ± 0.45 (30 °C) and -3.46 ± 0.29 (37 °C). On to CGUUAGCAAUAUUACGGGUA, for which the “self-splicing fitness (ln)” value (30 °C) is -3.15 ± 0.37 and the “self-splicing fitness (ln)” value (37 °C) is -2.08 ± 0.2. As for CGUUAGCAAUAUUACGUAAU, the “self-splicing fitness (ln)” value is -2.88 ± 0.24 (30 °C) and -1.63 ± 0.25 (37 °C). On to CGUUAGCAAUAUUACGUAUC, for which the “self-splicing fitness (ln)” value (37 °C) is -2.15 ± 0.28. CGUUAGCAAUAUUACGUCUC: the “self-splicing fitness (ln)” value (37 °C) is -1.86 ± 0.35. Regarding CGUUAGCAAUAUUACGUGCC, the “self-splicing fitness (ln)” value by setting is: (30 °C) -2.8 ± 0.31; (37 °C) -1.59 ± 0.29. On to CGUUAGCAAUAUUACGUUCC, for which the “self-splicing fitness (ln)” value (37 °C) is -1.47 ± 0.45.

For the sequence CUAAAGCAAUAUUACGAAGU, the “self-splicing fitness (ln)” value reads like this: (30 °C) -4.21 ± 0.26; (37 °C) -2.57 ± 0.28.

Regarding CUAAAGCAAUAUUACGACAA, the “self-splicing fitness (ln)” value (30 °C) was -2.42 ± 0.15 and the “self-splicing fitness (ln)” value (37 °C) was -1.2 ± 0.19. On to CUAAAGCAAUAUUACGACGC, for which the “self-splicing fitness (ln)” value (37 °C) was -1.39 ± 0.45. With CUAAAGCAAUAUUACGAGCA, the “self-splicing fitness (ln)” value reads like this: (30 °C) -3.41 ± 0.25; (37 °C) -1.08 ± 0.2. Regarding CUAAAGCAAUAUUACGAGUU, the “self-splicing fitness (ln)” value was -2.84 ± 0.32 (30 °C) and -1.85 ± 0.26 (37 °C). On to CUAAAGCAAUAUUACGCGAA, for which the “self-splicing fitness (ln)” value is, setting by setting: (30 °C) -3.71 ± 0.25; (37 °C) -2.63 ± 0.36.

CUAAAGCAAUAUUACGCGCU: the “self-splicing fitness (ln)” value (30 °C) was -3.15 ± 0.16 and the “self-splicing fitness (ln)” value (37 °C) is -2.06 ± 0.23. For CUAAAGCAAUAUUACGCGGC the same measures were -1.21 ± 0.13 and -1.28 ± 0.17.

For CUAAAGCAAUAUUACGCUCA, the “self-splicing fitness (ln)” value (30 °C) was -3.67 ± 0.25 and the “self-splicing fitness (ln)” value (37 °C) is -2.39 ± 0.19. For CUAAAGCAAUAUUACGGAAA the same measures were -4.24 ± 0.37 and -2.44 ± 0.35. Turning to CUAAAGCAAUAUUACGGACU, the “self-splicing fitness (ln)” value is -3.93 ± 0.25 (30 °C) and -1.9 ± 0.27 (37 °C).

In the case of CUAAAGCAAUAUUACGGAGC, the “self-splicing fitness (ln)” value was -3.27 ± 0.31 (30 °C) and -1.2 ± 0.29 (37 °C). In the case of CUAAAGCAAUAUUACGGAUC, the “self-splicing fitness (ln)” value (30 °C) was -2.3 ± 0.21.

The values above are taken from the supplement of paper PMC7877785.
